Key:
purchased CTNI antigen [1] = molecular target: purchased CTNI antigen (UniProt P19429); assay: fluorescent chromatography card, sandwich; coated on T line; 0.08 ng/ml
purchased CTNI antigen [2] = molecular target: purchased CTNI antigen (UniProt P19429); assay: fluorescent chromatography card, sandwich; coated on T line; 0.04 ng/ml
purchased CTNI antigen [3] = molecular target: purchased CTNI antigen (UniProt P19429); assay: fluorescent chromatography card, sandwich; coated on T line; 0 ng/ml (blank, no antigen)
purchased CTNI antigen [4] = molecular target: purchased CTNI antigen (UniProt P19429); assay: fluorescent chromatography card, sandwich; coated on T line; 10.5 ng/ml
purchased CTNI antigen [5] = molecular target: purchased CTNI antigen (UniProt P19429); assay: fluorescent chromatography card, sandwich; coated on T line; 0.15 ng/ml
purchased CTNI antigen [6] = molecular target: purchased CTNI antigen (UniProt P19429); assay: fluorescent chromatography card, sandwich; coated on T line, other CTNI antibody on fluorescent microspheres; 50 ng/ml
purchased CTNI antigen [7] = molecular target: purchased CTNI antigen (UniProt P19429); assay: fluorescent chromatography card, sandwich; coated on T line; 3 ng/ml
purchased CTNI antigen [8] = molecular target: purchased CTNI antigen (UniProt P19429); assay: fluorescent chromatography card, sandwich; coated on T line; 0.7 ng/ml
purchased CTNI antigen [9] = molecular target: purchased CTNI antigen (UniProt P19429); assay: fluorescent chromatography card, sandwich; coated on T line; 18 ng/ml

Sequence of UniProt P19429 (P19429 2-210 limits assumed): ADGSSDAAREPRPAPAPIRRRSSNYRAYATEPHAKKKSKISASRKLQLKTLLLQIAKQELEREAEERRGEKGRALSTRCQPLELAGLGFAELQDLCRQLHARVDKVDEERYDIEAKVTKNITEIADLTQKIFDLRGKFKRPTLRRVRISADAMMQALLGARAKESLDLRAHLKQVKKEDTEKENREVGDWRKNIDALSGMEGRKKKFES

fluorescence reading (name not given) (purchased CTNI antigen [1]): 0.02 | fluorescence reading (name not given) (purchased CTNI antigen [2]): 0.017 | fluorescence reading (name not given) (purchased CTNI antigen [3]): 0.015 | fluorescence reading (name not given) (purchased CTNI antigen [4]): 0.45 | fluorescence reading (name not given) (purchased CTNI antigen [5]): 0.026 | fluorescence reading (name not given) (purchased CTNI antigen [6]): 2.17 | fluorescence reading (name not given) (purchased CTNI antigen [7]): 0.18 | fluorescence reading (name not given) (purchased CTNI antigen [8]): 0.045 | fluorescence reading (name not given) (purchased CTNI antigen [9]): 0.746
B1: Anti-cTnI-21C5 monoclonal antibody (antibody, from another filing, V domains shown)
VH: EVQLQQSGPELVKPGASVKMSCKASGYSFTLYVVHWVKQKPGQGLEWIGYIQPYLDGTRYNEKFKGKATLTVDKSSSTAFMELSSLTSEDSAVYYCARTGYGGYGLAWLAYWGQGTLVTVSA
VL: QAVVIQESALTTSPGETVTLTCRSSSGAATTSQYANWVQEKPDHLFTGLIGGSNNRAPGVPARFSGSLIGDKAALTITGAQTEDEAIYFCAIVYSNHWVFGGGTKLTVLG
